Assay results: the RNAGym collection of RNA variant scans (doi:10.1073/pnas.2313332121)

B1: TPR t1 (parent)
chain: GACCAAUCUGCCCUCAGAGCUCGAGAACAUCUUCGGAUGCAGAGGAGGCAGGCUUCGGUGGCGCGAUAGCGCCAACGUCCUCAACCUCCAAUGCAUCCCACCACAUGAUGAUGCCUGAAGAGCCUUGGUUUUUUG

Variants of: B1
Assay: polymerase ribozyme fitness, log enrichment relative to wild type (log ratio); higher = more active; in vitro selection for triplet polymerase activity
Summary of the method: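 Libraries of mutants in each subunit of a heterodimeric triplet polymerase ribozyme were generated by PCR and transcribed. In triplicate, each went through one in vitro selection round: annealing with biotinylated primer, partner subunit and triplets; frozen incubation at −7 °C; gel excision of extended constructs; streptavidin-bead capture; RT-PCR. Fitness, taken from Illumina sequencing of input and output libraries, is the logarithm of a genotype's enrichment over wild-type enrichment, averaged across replicates with inverse-variance weights. The logarithm is base 2, and genotypes needed ≥10 input reads and ≥1 read per output to be kept.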

Row | Variant | polymerase ribozyme fitness (log ratio)
1 | C8A C11G U54C U106A | 0.24
2 | C8A A50C U92C | -1.6
3 | C8A G48U | -0.337
4 | C8A C72G | 0.254
5 | C8A G42A C73U | -1.21
6 | C8A C20A G71U | -2.77
7 | C8A G51U | -3.89
8 | C8A A50G A95C | 0.286
9 | C8A C40G C88A A111C | -1.02
10 | C8A C12U G45U C62U C94G | -1.01
11 | C8A G61A G63A | -6.8
12 | C8A C64U C104A G120A | 0.21
13 | C8A A103G G110U | -5.33
14 | C8A G52U G60C A91U U112A A118C U131C | -1.41
15 | C8A G42A G60U A121C | -0.202
16 | C8A C64A | -5.69
17 | C8A C12U C86G C104A | -1.31
18 | C8A C12U | -0.964
19 | C8A C12A | 0.497
20 | C8A C12A C34U C56G G77A | -2.77
21 | C8A G45C A105U | -1.9
22 | C8A G44U G52A C72A | -0.705
23 | C8A C20U A105G U112C G113A | -0.707
24 | C8A C104U | 0.701

Row | Variant | polymerase ribozyme fitness (log ratio)
25 | C8A G58A G60A | -0.486
26 | C8A C104A G120A | 1.08
27 | C8A A75G G117A A121U | 1.31
28 | C8A C28G C53A U106G | -3.51
29 | C8A A74U C115U A118U C124U | -0.848
30 | C8A G69U C99A G120A G122A | -1.73
31 | C8A C20U G60A C88A | -1.93
32 | C8A G36C G60U | -0.605
33 | C8A G35C G63A C98A | -6.69
34 | C8A G35U G58C | -4.74
35 | C8A C72U U109G | -3.8
36 | C8A C49A | 0.247
37 | C8A C13G G61U A84U | -0.177
38 | C8A A90U | -0.513
39 | C8A C49U C73G | -1.1
40 | C8A G44C U106G | -1.03
41 | C8A G52A C72G | 0.47
42 | C8A C104U G122A | 0.724
43 | C8A G45U C56U C73U A84C A95U | -1.85
44 | C8A G36A C79U U96G C102U | -2.91
45 | C8A A91G | -0.00436
46 | C8A A74U C104A C124G | -0.357
47 | C8A C20U A37G | -0.63
48 | C8A G57C C64U C123U U129A U133G | 1.06

Row | Variant | polymerase ribozyme fitness (log ratio)
49 | C8A C12U A16U C40A C62U U87A | -1.51
50 | C8A C20G G61A | -4.4
51 | C8A G44U | -0.208
52 | C8A C56U G69C U112A G120A | -7.42
53 | C8A C40U C62A A90C | -3.39
54 | C8A C12A C34U G39C G61U C85A | -7.04
55 | C8A C56A C72G | -1.07
56 | C8A C70U C72U | -0.317
57 | C8A G61C G122A | -0.605
58 | C8A G19A C88G A95C | -5.8
59 | C8A C53A C82A A108U | -5.69
60 | C8A C70U C89A G120A | -0.458
61 | C8A C11G A16U A43C U78C U125A | -1.72
62 | C8A C82A A90C | -1.03
63 | C8A G39C C53G G61C | -0.548
64 | C8A C13G | -0.0841
65 | C8A C40A A43G G60A | -3.37
66 | C8A C40A A43G G60C | -3.55
67 | C8A C15A A41C C49A G58U G63U U131A | -3.62
68 | C8A C13A C49G C124G | 1.1
69 | C8A C124U | 1.95
70 | C8A G52U C89U | -0.556
71 | C8A C53U C114A | 0.0648
72 | C8A G52U A91U U112A A118C U131C | -1.36

Row | Variant | polymerase ribozyme fitness (log ratio)
73 | C8A C22U U129G | -4.85
74 | C8A C13A A27G | -4.58
75 | C8A C13G A46U | -1.07
76 | C8A G47C G48A G58A G60U | -1.54
77 | C8A C34G G117C | -6.88
78 | C8A C34U C53U C62G U109A | -6.27
79 | C8A G52C U81A | -2.06
80 | C8A A50C C97G | -4.72
81 | C8A C62A | -0.709
82 | C8A G44U C123U | 0.898
83 | C8A G60U C104G C124U | -5.09
84 | C8A C114G | -2.41
85 | C8A G36A G60U C82A G117C U131A G135U | -5.4
86 | C8A C34A G42U | -4.61
87 | C8A C53A G69U A119G U131A U134G | 1.54
88 | C8A C56U A83U G93A | 0.0132
89 | C8A C49U A100U G120A | 0.731
90 | C8A G69A | -1.52
91 | C8A C15G C40A U54G A90G | -2.34
92 | C8A C49A C86U G93U C94U C123A | -0.367
93 | C8A G17C G63U U96C C97A G113U | -6.74
94 | C8A C97A | -4.07
95 | C8A G51U U59A A83U C85G U106A | -6.35
96 | C8A C53G C70U C97U U112A C124U | 0.47

Row | Variant | polymerase ribozyme fitness (log ratio)
97 | C8A C34A A37U C104U | -1.95
98 | C8A G51C C53A A66U C88A C114A | -6.04
99 | C8A C34U | -4.29
100 | C8A C86A | 0.557
101 | C8A C86G | -1.3
102 | C8A C86U | 0.466
103 | C8A G35A C123A | -1.9
104 | C8A C12G C15U A18U C70U G110U U125G | -5.75
105 | C8A G36A G57A G61A C72G | -1.48
106 | C8A C70U | -0.452
107 | C8A C28G C102A U109A | -4.85
108 | C8A C15A A29U G42U C72G C114U | -4.6
109 | C8A A84U C102A | -1.91
110 | C8A C80U C88U U133A | -0.694
111 | C8A C12U C40U C86U | -0.152
112 | C8A C12U C13G C98U | -1.16
113 | C8A C28G C64U C102A U109A | -4.53
114 | C8A C28G | -2.05
115 | C8A C12A U78G | -0.297
116 | C8A G44A A105G | -3.51
117 | C8A A83G C104U U129A | -2.16
118 | C8A G10A C86U G120C | 1.44
119 | C8A C11U A121U | 2.14
120 | C8A G47A C49G C70A U78C | -3.7

Row | Variant | polymerase ribozyme fitness (log ratio)
121 | C8A G17A C73A | -2.25
122 | C8A C13U U55G G93A | -0.498
123 | C8A G61A C115U | -0.118
124 | C8A C53A U92A A121U | -1.12
125 | C8A A68G C73G U78G C101U U112A | -5.78
126 | C8A C13U C20A C40A C49A A111G G117A U130C | -5.75
127 | C8A A68G C114A | -4.66
128 | C8A C72U A84C | 0.272
129 | C8A C49U A74C U78C C85A A91U C94U | -3.74
130 | C8A A74C G120U | 2.1
131 | C8A G36U G42A | -3.09
132 | C8A C22U G61A U129G | -4.98
133 | C8A C40U | -0.324
134 | C8A C56A | 0.505
135 | C8A C104A A105C C124G U126G | -3.52
136 | C8A G19C C82A | -1.97
137 | C8A C79U | 0.419
138 | C8A C86G G113A | -1.25
139 | C8A C94A | -0.131
140 | C8A G60A U78A U92C | -1.3
141 | C8A C15A A29U G42U | -3.65
142 | C8A C12G G23U G71U C86U G120C | -5.74
143 | C8A G61C | -0.912
144 | C8A G61U | -0.146

Row | Variant | polymerase ribozyme fitness (log ratio)
145 | C8A G39A G44C C82U C86U G127C | -2.71
146 | C8A C22G A121U | -1.6
147 | C8A G36U U112A G127U | 2.16
148 | C8A G63A C98A | -5.9
149 | C8A C86U G110A G120U | 0.0948
150 | C8A C72U U78A G93C C101A | -1.75
151 | C8A G45U | -0.263
152 | C8A G45A | 0.134
153 | C8A A119G U126G | -0.311
154 | C8A C12G C64U G110U | -0.685
155 | C8A G63U A119U | -1.39
156 | C8A C40U A90C | -0.703
157 | C8A C12A C34U C56G G71A G77A | -4.02
158 | C8A G23A A66G G69U C104U A118G | -5.28
159 | C8A C123G | 2.06
160 | C8A C98U | -1.12
161 | C8A G45A A90U G117A | -1.14
162 | C8A C15G A29U | -2.66
163 | C8A C89A | -1.24
164 | C8A G44C G57C G117C U126A | -5.88
165 | C8A C15A A41C C49A G58U G63U | -3.45
166 | C8A C12U A43U G51U C56U U81C C85A C97A A111G | -6.23
167 | C8A C80A | -1.88
